Source: patent US6468740
surface (amide) = not defined here

B1: Ac-RQFKVVT-OH, free peptide (peptide)
peptide: Ac-RQFKVVT-OH
B2: Ac-QFKVVT-OH, free peptide (peptide)
peptide: Ac-QFKVVT-OH
B3: Ac-FKVVT-OH, free peptide (peptide)
peptide: Ac-FKVVT-OH
B4: Ac-RRQFKVVT-OH, free peptide (peptide)
peptide: Ac-RRQFKVVT-OH
B5: Ac-RQFKVVT-NH2, free peptide (peptide)
peptide: Ac-RQFKVVT-NH2
B6: LRRQFK, surface-immobilized peptide (peptide)
peptide: Ac-LRRQFK-{surface (amide)}
modifications: reading uncertain; also: C-terminus amide-linked to surface
B7: RRQFKVV, surface-immobilized peptide (peptide)
peptide: Ac-RRQFKVV-{surface (amide)}
modifications: reading uncertain; also: C-terminus amide-linked to surface
B8: RQFK, surface-immobilized peptide (peptide)
peptide: Ac-RQFK-{surface (amide)}
modifications: reading uncertain; also: C-terminus amide-linked to surface
B9: RRQFK, surface-immobilized peptide (peptide)
peptide: Ac-RRQFK-{surface (amide)}
modifications: reading uncertain; also: C-terminus amide-linked to surface
B10: LRRQFKV, surface-immobilized peptide (peptide)
peptide: Ac-LRRQFKV-{surface (amide)}
modifications: reading uncertain; also: C-terminus amide-linked to surface
B11: RQFKV, surface-immobilized peptide (peptide)
peptide: Ac-RQFKV-{surface (amide)}
modifications: reading uncertain; also: C-terminus amide-linked to surface
B12: RRQF, surface-immobilized peptide (peptide)
peptide: Ac-RRQF-{surface (amide)}
modifications: reading uncertain; also: C-terminus amide-linked to surface
B13: …, surface-immobilized peptide (peptide)
peptide: Ac-FLRRQFKVVT-{surface (amide)}
modifications: reading uncertain; also: C-terminus amide-linked to surface
B14: RRQFKV, surface-immobilized peptide (peptide)
peptide: Ac-RRQFKV-{surface (amide)}
modifications: reading uncertain; also: C-terminus amide-linked to surface
B15: …, surface-immobilized peptide (peptide)
peptide: Ac-FLRRQFKVV-{surface (amide)}
modifications: reading uncertain; also: C-terminus amide-linked to surface
B16: RQFKVV, surface-immobilized peptide (peptide)
peptide: Ac-RQFKVV-{surface (amide)}
modifications: reading uncertain; also: C-terminus amide-linked to surface
B17: QFKVVT, surface-immobilized peptide (peptide)
peptide: Ac-QFKVVT-{surface (amide)}
modifications: reading uncertain; also: C-terminus amide-linked to surface
B18: RQFKVVT, surface-immobilized peptide (peptide)
peptide: Ac-RQFKVVT-{surface (amide)}
modifications: reading uncertain; also: C-terminus amide-linked to surface
B19: RRQFKVVT, surface-immobilized peptide (peptide)
peptide: Ac-RRQFKVVT-{surface (amide)}
modifications: reading uncertain; also: C-terminus amide-linked to surface
B20: LRRQ, surface-immobilized peptide (peptide)
peptide: Ac-LRRQ-{surface (amide)}
modifications: reading uncertain; also: C-terminus amide-linked to surface
B21: QFKVV, surface-immobilized peptide (peptide)
peptide: Ac-QFKVV-{surface (amide)}
modifications: reading uncertain; also: C-terminus amide-linked to surface
B22: …, surface-immobilized peptide (peptide)
peptide: Ac-LRRQFKVVT-{surface (amide)}
modifications: reading uncertain; also: C-terminus amide-linked to surface
B23: LRRQF, surface-immobilized peptide (peptide)
peptide: Ac-LRRQF-{surface (amide)}
modifications: reading uncertain; also: C-terminus amide-linked to surface
B24: QFKV, surface-immobilized peptide (peptide)
peptide: Ac-QFKV-{surface (amide)}
modifications: reading uncertain; also: C-terminus amide-linked to surface
B25: FLRRQFK, surface-immobilized peptide (peptide)
peptide: Ac-FLRRQFK-{surface (amide)}
modifications: reading uncertain; also: C-terminus amide-linked to surface
B26: KVVT, surface-immobilized peptide (peptide)
peptide: Ac-KVVT-{surface (amide)}
modifications: reading uncertain; also: C-terminus amide-linked to surface
B27: LRRQFKVV, surface-immobilized peptide (peptide)
peptide: Ac-LRRQFKVV-{surface (amide)}
modifications: reading uncertain; also: C-terminus amide-linked to surface
B28: FLRRQ, surface-immobilized peptide (peptide)
peptide: Ac-FLRRQ-{surface (amide)}
modifications: reading uncertain
B29: FKVVT, surface-immobilized peptide (peptide)
peptide: Ac-FKVVT-{surface (amide)}
modifications: reading uncertain
B30: FLRR, surface-immobilized peptide (peptide)
peptide: Ac-FLRR-{surface (amide)}
modifications: reading uncertain
B31: FLRRQF, surface-immobilized peptide (peptide)
peptide: Ac-FLRRQF-{surface (amide)}
modifications: reading uncertain; also: C-terminus amide-linked to surface
B32: FKVV, surface-immobilized peptide (peptide)
peptide: Ac-FKVV-{surface (amide)}
modifications: reading uncertain
B33: FLRRQFKV, surface-immobilized peptide (peptide)
peptide: Ac-FLRRQFKV-{surface (amide)}
modifications: reading uncertain; also: C-terminus amide-linked to surface

What follows are binders tested against monoclonal antibody D32.39 (assay: solution competition of free peptide against radiolabeled dynorphin B peptide for D32.39).

IC50 | Binder
11 nM | B1
3200 nM | B2
77000 nM | B3
3.9 nM | B4
7.3 nM | B5

What follows are binders tested against monoclonal antibody D32.39 (assay: not given).

Normalized Intensity (%) | Binder
12% | B6
58% | B7
13% | B8
12% | B9
16% | B10
16% | B11
11% | B12
98% | B13
16% | B14
37% | B15
54% | B16
28% | B17
99% | B18
99% | B19
10% | B20
17% | B21
87% | B22
10% | B23
11% | B24
10% | B25
11% | B26
44% | B27
8% | B28
13% | B29
6% | B30
8% | B31
10% | B32
14% | B33

Target: monoclonal antibody D32.39
Test: not given
Remark: another data set of the same source

relative signal | Binder
100% | B13
